# Measurements: US20050239710
# T1: 19-mer (SEQ ID NO:11) cleavage domain peptide
# T1 chain: PRCGNPDVANYNFFPRKPK
# B1: Proenzyme pro-MMP-9 (protein)
# chain: APRQRQSTLVLFPGDLRTNLTDRQLAEEYLYRYGYTRVAEMRGESKSLGPALLLLQKQLSLPETGELDSATLKAMRTPRCGVPDLGRFQTFEGDLKWHHHNITYWIQNYSEDLPRAVIDDAFARAFALWSAVTPLTFTRVYSRDADIVIQFGVAEHGDGYPFDGKDGLLAHAFPPGPGIQGDAHFDDDELWSLGKGVVVPTRFGNADGAACHFPFIFEGRSYSACTTDGRSDGLPWCSTTANYDTDDRFGFCPSERLYTQDGNADGKPCQFPFIFQGQSYSACTTDGRSDGYRWCATTANYDRDKLFGFCPTRADSTVMGGNSAGELCVFPFTFLGKEYSTCTSEGRGDGRLWCATTSNFDSDKKWGFCPDQGYSLFLVAAHEFGHALGLDHSSVPEALMYPMYRFTEGPPLHKDDVNGIRHLYGPRPEPEPRPPTTTTPQPTAPPTVCPTGPPTVHPSERPTAGPTGPPSAGPTGPPTAGPSTATTVPLSPVDDACNVNIFDAIAEIGNQLYLFKDGKYWRFSEGRGSRPQGPFLIADKWPALPRKLDSVFEERLSKKLFFFSGRQVWVYTGASVLGPRRLDKLGLGADVAQVTGALRSGRGKMLLFSGRRLWRFDVKAQMVDPRSASEVDRMFPGVPLDTHDVFQYREKAYFCQDRFYWRVSSRSELNQVDQVGYVTYDILQCPED
# Biological target: T1, 19-mer (SEQ ID NO:11) cleavage domain …
protein,measurement,value
B1,conversion of pro-MMP-9 into prodomain and active enzyme by stromilysin (HPLC splicing assay),Splicing can be inhibited in a dose dependent manner with micromolar 19-mer (SEQ ID NO:11) peptide.
